Data as given in PMC4297639 (Nature protocols, 2014).

Target: BACE2 (aspartic protease, recombinant, wild-type) (Homo sapiens (assumed; ), UniProt Q9Y5Z0)
Test: crystal structure

BACE2 (aspartic protease, recombinant, wild-type), sequence (Q9Y5Z0 21-518): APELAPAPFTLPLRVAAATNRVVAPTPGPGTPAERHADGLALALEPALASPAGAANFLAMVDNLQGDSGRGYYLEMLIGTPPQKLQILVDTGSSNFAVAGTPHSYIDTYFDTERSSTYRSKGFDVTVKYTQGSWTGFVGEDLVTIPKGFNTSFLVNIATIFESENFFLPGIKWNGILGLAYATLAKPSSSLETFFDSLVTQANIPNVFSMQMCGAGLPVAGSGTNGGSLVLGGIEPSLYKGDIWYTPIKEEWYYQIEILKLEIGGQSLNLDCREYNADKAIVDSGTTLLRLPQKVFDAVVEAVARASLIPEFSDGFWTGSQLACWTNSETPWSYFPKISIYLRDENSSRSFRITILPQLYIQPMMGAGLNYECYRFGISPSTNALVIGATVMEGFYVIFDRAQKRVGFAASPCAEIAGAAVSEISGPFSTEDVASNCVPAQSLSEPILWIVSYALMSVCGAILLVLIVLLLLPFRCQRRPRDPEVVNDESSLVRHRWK

B1: Nanobody XA4815 (VHH)
VHH: QVQLQESGGGLVQAGGSLRLSCAASGFTFSRAAMRWVRRAPERGLEWVANINAGDGSASYADFVKGRFTASRDKAGNRLYLQMDNLRPNDTAVYYCIYNGHRGQGTQVTVSS
- binding result: binds
